Experimental data from US20230174598A1 (UNIVERSITY OF FLORIDA RESEARCH FOUNDATION, published 2023).
Changes are numbered by the printed parent chain. In names and notes the source's numbering stands.

B1: E361G arrestin-1 variant (bovine) (other)
chain: MHHHHHHKANKPAPNHVIFKKISRDKSVTIYLGKRDYIDHVERVEPVDGVVLVDPELVKGKRVYVSLTCAFRYGQEDIDVMGLSFRRDLYFSQVQVFPPVGASGATTRLQESLIKKLGANTYPFLLTFPDYLPCSVMLQPAPQDVGKSCGVDFEIKAFATHSTDVEEDKIPKKSSVRLLIRKVQHAPRDMGPQPRAEASWQFFMSDKPLRLAVSLSKEIYYHGEPIPVTVAVTNSTEKTVKKIKVLVEQVTNVVLYSSDYYIKTVAAEEAQEKVPPNSSLTKTLTLVPLLANNRERRGIALDGKIKHEDTNLASSTIIKEGIDKTVMGILVSYQIKVKLTVSGLLGELTSSEVATEVPFRLMHPQPGDPDTAKESFQDENFVFEEFARQNLKDAGEYKEEKTDQEAAMDE
B2: E361A/D362A arrestin-1 variant (bovine) (other)
chain: B1 chain with G367A, D368A
B3: D362A arrestin-1 variant (bovine) (other)
chain: B1 chain with G367E, D368A
B4: D362G arrestin-1 variant (bovine) (other)
chain: B1 chain with G367E, D368G
B5: E361A arrestin-1 variant (bovine) (other)
chain: B1 chain with G367A
B6: E218C arrestin-1 (bovine, His(6), C63A/C143A) labeled with monobromobimane (other)
chain: B1 chain with C69A, C149A, E224C, G367E
modifications: monobromobimane (mBBr) on Cys 218
notes: Cysteine-substitution mutant, made in Pichia pastoris
B7: R189C arrestin-1 (bovine, His(6), C63A/C143A) labeled with monobromobimane (other)
chain: B1 chain with C69A, C149A, R195C, G367E
modifications: monobromobimane (mBBr) on Cys 189
notes: as for B6
B8: K166C arrestin-1 (bovine, His(6), C63A/C143A) labeled with monobromobimane (other)
chain: B1 chain with C69A, C149A, K172C, G367E
modifications: monobromobimane (mBBr) on Cys 166
notes: as for B6
B9: D362C arrestin-1 (bovine, His(6), C63A/C143A) labeled with monobromobimane (other)
chain: B1 chain with C69A, C149A, G367E, D368C
modifications: monobromobimane (mBBr) on Cys 362
notes: as for B6
B10: E50C arrestin-1 (bovine, His(6), C63A/C143A) labeled with monobromobimane (other)
chain: B1 chain with E56C, C69A, C149A, G367E
modifications: monobromobimane (mBBr) on Cys 50
notes: as for B6
B11: V94C arrestin-1 (bovine, His(6), C63A/C143A) labeled with monobromobimane (other)
chain: B1 chain with C69A, V100C, C149A, G367E
modifications: monobromobimane (mBBr) on Cys 94
notes: as for B6
B12: K28C arrestin-1 (bovine, His(6), C63A/C143A) labeled with monobromobimane (other)
chain: B1 chain with K34C, C69A, C149A, G367E
modifications: monobromobimane (mBBr) on Cys 28
notes: as for B6
B13: R37C arrestin-1 (bovine, His(6), C63A/C143A) labeled with monobromobimane (other)
chain: B1 chain with R43C, C69A, C149A, G367E
modifications: monobromobimane (mBBr) on Cys 37
notes: as for B6
B14: E302C arrestin-1 (bovine, His(6), C63A/C143A) labeled with monobromobimane (other)
chain: B1 chain with C69A, C149A, E308C, G367E
modifications: monobromobimane (mBBr) on Cys 302
notes: as for B6
B15: K53C arrestin-1 (bovine, His(6), C63A/C143A) labeled with monobromobimane (other)
chain: B1 chain with K59C, C69A, C149A, G367E
modifications: monobromobimane (mBBr) on Cys 53
notes: as for B6
B16: S210C arrestin-1 (bovine, His(6), C63A/C143A) labeled with monobromobimane (other)
chain: B1 chain with C69A, C149A, S216C, G367E
modifications: monobromobimane (mBBr) on Cys 210
notes: as for B6
B17: A113C arrestin-1 (bovine, His(6), C63A/C143A) labeled with monobromobimane (other)
chain: B1 chain with C69A, A119C, C149A, G367E
modifications: monobromobimane (mBBr) on Cys 113
notes: as for B6
B18: K267C arrestin-1 (bovine, His(6), C63A/C143A) labeled with monobromobimane (other)
chain: B1 chain with C69A, C149A, K273C, G367E
modifications: monobromobimane (mBBr) on Cys 267
notes: as for B6
B19: D183C arrestin-1 (bovine, His(6), C63A/C143A) labeled with monobromobimane (other)
chain: B1 chain with C69A, C149A, D189C, G367E
modifications: monobromobimane (mBBr) on Cys 183
notes: as for B6
B20: V281C arrestin-1 (bovine, His(6), C63A/C143A) labeled with monobromobimane (other)
chain: B1 chain with C69A, C149A, V287C, G367E
modifications: monobromobimane (mBBr) on Cys 281
notes: as for B6

Molecular target: T1, bovine enolase-1 (bovine, UniProt Q9XSJ4 1-434, AlexaFluor-546 maleimide on reactive cysteines (pulldown assay only; unlabeled in the quench and activity assays))
T1 sequence (Q9XSJ4 whole entry): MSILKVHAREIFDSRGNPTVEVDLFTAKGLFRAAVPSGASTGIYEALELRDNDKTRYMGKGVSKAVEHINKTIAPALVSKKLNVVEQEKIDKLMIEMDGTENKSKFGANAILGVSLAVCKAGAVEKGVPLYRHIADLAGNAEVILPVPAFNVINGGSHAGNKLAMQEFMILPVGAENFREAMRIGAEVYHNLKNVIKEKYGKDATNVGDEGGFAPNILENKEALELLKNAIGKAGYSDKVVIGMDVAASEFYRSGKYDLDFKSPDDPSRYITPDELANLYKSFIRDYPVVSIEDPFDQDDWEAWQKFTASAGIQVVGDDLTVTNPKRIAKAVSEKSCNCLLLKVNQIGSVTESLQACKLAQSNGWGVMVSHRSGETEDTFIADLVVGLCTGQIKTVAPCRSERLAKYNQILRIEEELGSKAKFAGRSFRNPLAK
Assay: cell-based or functional assay

Row | % inhibition of enolase-1 catalytic activity [%] | Molecule
1 | 18.3 | B1
2 | 9 | B2
3 | 22.2 | B3
4 | 20.7 | B4
5 | 21.1 | B5

Molecular target: T1, bovine enolase-1
Assay: KI quench protection of mBBr-labeled arrestin-1; 0.25 µM arrestin-1, 5 µM (20-fold) enolase-1
Method: C. Quenching assay. Cysteine mutants of arrestin-1 were labeled with monobromobimane (mBBr, ThermoFisher), reacting the arrestin-1 protein with 100-fold molar excess of the fluorescent label for two hours at room temperature. The unreacted label was removed by dialyzing against three sequential changes of 500-volumes of LAP200 buffer. […] Fluorescence quenching of the mBBr fluorophore was performed using 0.25 μM mBBr-labeled arrestin-1 with 100 mM potassium iodide in the presence or absence of 5 μM bovine enolase-1 that had been heterologously expressed and purified as previously described for arrestin-1, monitoring fluorescence emission at 470 nm. To determine the degree to which enolase-1 shielded a residue from quenching by potassium iodide, a protection factor was calculated as follows: […]
C. Mapping interaction of arrestin-1 with enolase-1. […] The fluorescence emission of the mBBr-labeled arrestin-1 with and without potassium iodide was measured to determine the range of quenching by KI. The fluorescence emission quench by KI with and without enolase-1 was then measured. A quench protection factor was calculated as described in the experimental procedures (Table 2). […] When mapped onto the surface of the arrestin-1 structure, these residues largely mapped to a single surface along the “bottom” of the arrestin protein (FIG. 2B).

Row | F(A+E+K) (fluorescence with enolase-1 and KI) | Pf (quench protection factor) | Molecule
6 | 6160 | 0.073 | S86C arrestin-1 (bovine, His(6), C63A/C143A) labeled with monobromobimane (from UniProt P08168 2-404)
7 | 11500 | 0.002 | D317C arrestin-1 (bovine, His(6), C63A/C143A) labeled with monobromobimane (from UniProt P08168 2-404)
8 | 730 | 0.011 | S251C arrestin-1 (bovine, His(6), C63A/C143A) labeled with monobromobimane (from UniProt P08168 2-404)
9 | 778 | -0.001 | V139C arrestin-1 (bovine, His(6), C63A/C143A) labeled with monobromobimane (from UniProt P08168 2-404)
10 | 630 | 0.002 | I72C arrestin-1 (bovine, His(6), C63A/C143A) labeled with monobromobimane (from UniProt P08168 2-404)
11 | 600 | -0.011 | Y25C arrestin-1 (bovine, His(6), C63A/C143A) labeled with monobromobimane (from UniProt P08168 2-404)
12 | 636 | -0.001 | S199C arrestin-1 (bovine, His(6), C63A/C143A) labeled with monobromobimane (from UniProt P08168 2-404)
13 | 14000 | 0.012 | W194C arrestin-1 (bovine, His(6), C63A/C143A) labeled with monobromobimane (from UniProt P08168 2-404)
14 | 953 | 0.134 | E393C arrestin-1 (bovine, His(6), C63A/C143A) labeled with monobromobimane (from UniProt P08168 2-404)
15 | 695 | 0.002 | S231C arrestin-1 (bovine, His(6), C63A/C143A) labeled with monobromobimane (from UniProt P08168 2-404)
16 | 14000 | 0.012 | Y125C arrestin-1 (bovine, His(6), C63A/C143A) labeled with monobromobimane (from UniProt P08168 2-404)
17 | 963 | -0.005 | R18C arrestin-1 (bovine, His(6), C63A/C143A) labeled with monobromobimane (from UniProt P08168 2-404)
18 | 9500 | 1.08 | B6
19 | 11100 | 0.467 | B7
20 | 1040 | 0.026 | B8
21 | 5490 | 1.2 | B9
22 | 8140 | 0.297 | B10
23 | 1900 | 0.062 | B11
24 | 17200 | 0.732 | B12
25 | 16600 | 0.564 | B13
26 | 3680 | 0.772 | B14
27 | 11000 | 0.314 | B15
28 | 8720 | 0.618 | B16
29 | 3460 | 0.109 | B17
30 | 2850 | 0.484 | B18
31 | 19200 | 0.787 | B19
32 | 2440 | 0.269 | B20
